Experimental findings from patent US20210147536A1 (MAB VENTURE BIOPHARM, published 2021) are described below.

Some results are limits rather than exact numbers.

In experiment [1] the target is T1, recombinant mouse LAG-3-6*His tag fusion protein (mouse, UniProt Q61790 23-442).
T1 construct: made in Expi293 cells from the mouse LAG-3 cDNA; also called mouse LAG-3 antigen
T1 sequence: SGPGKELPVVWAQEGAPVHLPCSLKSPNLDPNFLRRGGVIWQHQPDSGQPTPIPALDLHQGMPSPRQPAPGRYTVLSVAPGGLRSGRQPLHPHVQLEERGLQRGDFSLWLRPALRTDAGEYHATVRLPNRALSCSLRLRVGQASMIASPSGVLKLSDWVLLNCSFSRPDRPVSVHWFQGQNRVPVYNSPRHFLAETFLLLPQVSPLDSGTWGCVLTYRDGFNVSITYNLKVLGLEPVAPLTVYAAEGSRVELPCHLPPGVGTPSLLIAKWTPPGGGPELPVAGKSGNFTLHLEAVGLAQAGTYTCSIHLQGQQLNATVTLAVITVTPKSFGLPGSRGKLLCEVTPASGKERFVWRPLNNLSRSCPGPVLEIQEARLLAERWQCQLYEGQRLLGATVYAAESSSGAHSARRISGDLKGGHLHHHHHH
The experiment in a line: ELISA, antibody coated at 1 µg/ml, mouse LAG-3-6*His titrated, anti-His HRP.

For experiment [2], the target named is T2, human LAG-3 on the cell surface (human, UniProt P18627 23-525).
T2 construct: whole, on cells; also called cells expressing the human LAG-3
T2 sequence (looked up): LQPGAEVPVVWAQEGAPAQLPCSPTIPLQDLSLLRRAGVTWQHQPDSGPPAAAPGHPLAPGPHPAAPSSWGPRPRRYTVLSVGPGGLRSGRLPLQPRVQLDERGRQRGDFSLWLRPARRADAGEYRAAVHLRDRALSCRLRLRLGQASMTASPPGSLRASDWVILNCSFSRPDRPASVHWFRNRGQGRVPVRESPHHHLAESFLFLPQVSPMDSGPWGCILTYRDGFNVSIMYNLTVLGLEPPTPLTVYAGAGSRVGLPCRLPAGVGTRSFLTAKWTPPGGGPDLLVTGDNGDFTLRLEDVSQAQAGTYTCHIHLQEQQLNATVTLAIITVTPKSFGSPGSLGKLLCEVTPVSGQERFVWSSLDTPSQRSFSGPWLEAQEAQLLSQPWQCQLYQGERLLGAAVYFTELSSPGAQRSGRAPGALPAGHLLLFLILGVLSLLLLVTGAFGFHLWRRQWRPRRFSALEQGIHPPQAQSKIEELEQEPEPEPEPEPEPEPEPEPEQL
As to the kind of experiment: flow cytometry on cells expressing the human LAG-3, PE anti-human IgG; N = 4.

Experiment [3] deals with T3, human LAG-3-6*His tag recombinant fusion protein (human, UniProt P18627 23-450, biotin-labelled in panning and in Example 9).
T3 construct: Bought protein; also called hLAG-3-6*his tag recombinant protein; human LAG-3-his tag recombinant fusion protein
T3 sequence: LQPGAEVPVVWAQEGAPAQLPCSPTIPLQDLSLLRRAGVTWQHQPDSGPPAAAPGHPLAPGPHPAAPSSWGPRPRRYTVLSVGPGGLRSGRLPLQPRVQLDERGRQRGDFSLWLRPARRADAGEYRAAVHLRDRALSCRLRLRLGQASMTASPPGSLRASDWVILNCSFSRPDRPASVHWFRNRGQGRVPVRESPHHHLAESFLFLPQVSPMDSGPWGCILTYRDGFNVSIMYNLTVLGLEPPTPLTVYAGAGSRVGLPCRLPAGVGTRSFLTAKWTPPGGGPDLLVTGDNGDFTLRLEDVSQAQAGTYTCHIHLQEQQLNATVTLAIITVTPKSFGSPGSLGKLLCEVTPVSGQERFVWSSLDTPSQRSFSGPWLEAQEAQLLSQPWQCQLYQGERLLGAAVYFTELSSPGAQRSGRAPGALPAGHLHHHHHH
The experiment in a line: BLI Octet Red96, MV705-3 on AHC sensor, human LAG-3-6*His at 250 nM, 1:1 model.

Experiment [4] concerns the target T4, human LAG-3-mFc recombinant fusion protein (human).
T4 construct: also called hLAG-3-mFc
T4 chain: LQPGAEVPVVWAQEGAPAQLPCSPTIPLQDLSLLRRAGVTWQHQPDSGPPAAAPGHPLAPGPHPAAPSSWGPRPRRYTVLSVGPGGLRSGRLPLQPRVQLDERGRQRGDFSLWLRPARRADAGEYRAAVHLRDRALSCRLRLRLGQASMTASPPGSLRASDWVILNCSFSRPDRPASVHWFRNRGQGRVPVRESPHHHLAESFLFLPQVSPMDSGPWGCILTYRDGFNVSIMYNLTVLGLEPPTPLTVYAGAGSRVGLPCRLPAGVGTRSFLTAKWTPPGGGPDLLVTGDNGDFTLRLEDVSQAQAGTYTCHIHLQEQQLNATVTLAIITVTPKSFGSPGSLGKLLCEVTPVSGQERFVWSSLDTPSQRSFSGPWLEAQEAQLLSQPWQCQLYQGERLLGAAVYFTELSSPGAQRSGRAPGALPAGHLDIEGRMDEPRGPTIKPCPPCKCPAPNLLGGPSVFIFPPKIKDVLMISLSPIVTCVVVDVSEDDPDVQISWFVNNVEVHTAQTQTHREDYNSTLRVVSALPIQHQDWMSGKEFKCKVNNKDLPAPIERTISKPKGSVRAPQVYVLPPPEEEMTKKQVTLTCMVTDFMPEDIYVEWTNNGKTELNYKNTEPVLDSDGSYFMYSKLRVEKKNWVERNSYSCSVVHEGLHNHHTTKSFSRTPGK
As to the kind of experiment: flow cytometry, blocking of hLAG-3-mFc (10 µg/ml) binding to MHC class II on Daudi cells.

B1: anti-human LAG-3 full human monoclonal antibody MV705-3 (antibody, human IgG4, V domains shown)
VH: EVQLLESGAEVKKPGASVKVSCKASGYTFTSYGISWVRQAPGQGLEWMGWISAYNGNTNYAQKLQGRVTMTTDTSTSTAYMELRSLRSDDTAVYYCARDGWWELLRPDDAFDIWGQGTTVTVSS
VL: QLVLTQSPSVSVSPGQTASITCSGDKLGDKYAYWYQQKPGQAPVLVIYYDSDRPSGIPERFSGSNSGNTATLTISRVEAGDEADYYCQVWDSSSDQVVFGGGTQLTVLG
notes: Full IgG4 with lambda light chain; also called MV705-3(DD + DD)
In the case of B1, the half-maximal effective concentration (EC50) in experiment [1] stood at 2.6 µg/mL. This molecule gave an EC50 in experiment [2] of 0.0023 µg/mL. Besides, in experiment [3], the koff was less than 1e-07 s⁻¹ and the on-rate constant (kon) was 13800 M⁻¹ s⁻¹. For the same molecule, the IC50 in experiment [4] turned out to be 2.8 µg/mL.
